B1: TPR t1 (parent)
chain: GACCAAUCUGCCCUCAGAGCUCGAGAACAUCUUCGGAUGCAGAGGAGGCAGGCUUCGGUGGCGCGAUAGCGCCAACGUCCUCAACCUCCAAUGCAUCCCACCACAUGAUGAUGCCUGAAGAGCCUUGGUUUUUUG

Variants of: B1
Assay: polymerase ribozyme fitness, log enrichment relative to wild type (log ratio); higher = more active; in vitro selection for triplet polymerase activity
In short: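 Input and output libraries were sequenced on Illumina after a single in vitro selection round, run in triplicate on PCR-built, transcribed mutant libraries of each subunit of a heterodimeric triplet polymerase ribozyme. Selection annealed libraries to a biotinylated primer, the partner subunit and triplets, incubated them frozen at −7 °C, then gel-excised extended constructs for streptavidin-bead capture and RT-PCR. Genotypes with ≥10 input reads and ≥1 read per output were kept. Fitness is the logarithm, taken in base 2, of genotype enrichment divided by wild-type enrichment, using inverse-variance-weighted replicate averages.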

Row | Variant | polymerase ribozyme fitness (log ratio)
1 | C13G C53G G63A | -2.67
2 | C12G C15G A46U A74G U78A C114A | -6.73
3 | C12U C62U C70G G93A | -5.44
4 | C12U A18U G47C U130A | -4.44
5 | C13A U106A G110A | -2.53
6 | C12G G93A C94U | -1.83
7 | C13A A111C | -1.39
8 | C13A A111U | -4.17
9 | C12G C73A C79A C86U | -0.241
10 | C12U A27G G42A A90G G93U A95G | -2.39
11 | C13A G52A G128C | -4.3
12 | C13A G39U C56A | -2.45
13 | C13A G110C | -4.52
14 | C12U C49G G113U C114A U129A | -4.7
15 | C12U C89U A100C U133G | -1.42
16 | C12G G47C G52A C64U C123A | -3.61
17 | C13A C34A G69A U96A C115A | -7.14
18 | C12U A27G C40U C56U C79A U81A C124U | -2.87
19 | C12G G57A G61U C80A | -2.05
20 | C12G C34A C56U | -2.05
21 | C12G C31U G61A | -5.13
22 | C12U A50G A74U U78C G93A | -1.93
23 | C12U A27G C88A C123G U126A | -1.75
24 | C13G A108G | -3.4

Row | Variant | polymerase ribozyme fitness (log ratio)
25 | C12G G120C A121G | -1.12
26 | C13A A16U C101G | -4.02
27 | C12G U32A A37U | -3.65
28 | C13G A83U A95C G110A G120U | -3.42
29 | C12U C94U U112C | 1.32
30 | C13A A90G A95G U133G | -1.7
31 | C13G A37U U38C C62U | -4.23
32 | C12G C49G U54A | -0.423
33 | C12U G35A G57C C88U | -4.97
34 | C13A A29G C53U U106C | -5.28
35 | C13A G58C | -1.37
36 | C13A G61C | -1.81
37 | C13G C40U G47C C62U U78A | -3.84
38 | C12U G60C U109G | -4
39 | C12U U33G C62G A105U U112G U125A | -6.16
40 | C12U U14A C40A C72U A105C | -4.37
41 | C13A A29G C73G C79U U125G | -4.63
42 | C12G C40U A43U A83U A105C C124G | -5.47
43 | C13A C15U G47C C114A U130C | -6.45
44 | C12G C72G C104U C123U C124A | 2.06
45 | C13A C72U | -1.96
46 | C12U A27C C49A | -2.06
47 | C12U U54A C56A A91C C115U | -1.35
48 | C13A G60C A84G | -2.96

Row | Variant | polymerase ribozyme fitness (log ratio)
49 | C12U G39C G52C C53A C79A A119U | -1.3
50 | C12U C89G | -0.883
51 | C12U U92G U96A | -2.63
52 | C13A C123G | -0.0402
53 | C13A C123U | 0.793
54 | C12U A91U | -1.85
55 | C13G A50G G71A U106A C124A G127U | -0.731
56 | C12U G63U C70A C82A C115A G128A | -1.07
57 | C12G C28U A66C C72U A84C | -3.81
58 | C12U G71C | -0.564
59 | C13G C49G | -2.28
60 | C13A C86A | -3.09
61 | C12U C40U G42C C80A C88G C102A A111G C123U U134G | -6.19
62 | C12U G42U A84C U116A | -3.42
63 | C12G C62U A68C U116C A121C U129A | -6.48
64 | C12G G60A C85G G117A U131A | -1.29
65 | C13G C53G C115A | -1.47
66 | C13G A37G G48C | -3.17
67 | C12U C40U G69C A91U C101U A121C | -2.89
68 | C13A A100U | -2.85
69 | C12U C73A C104A | -0.305
70 | C12G G120C | 1.23
71 | C12U A50C C64U A66G U81C | -4.8
72 | C12U C123U | 1.71

Row | Variant | polymerase ribozyme fitness (log ratio)
73 | C12U A18C C34U G120C | -4.87
74 | C12G U14G G57A G113U | -7.24
75 | C13A C76G | -2.51
76 | C13A G51U | -5.64
77 | C12U C13U C40G C76A G77A U131C | -0.917
78 | C12G C124A | 1.61
79 | C12G A46G G63C C115G | -4.6
80 | C13A U129A | -2.8
81 | C12G C40U C49U G65C C114G | -6.07
82 | C12U G39C C64U A84U | -0.905
83 | C12G G42U C49A G113C U132A | -2.5
84 | C12U G77C | 0.201
85 | C12G U14C G17U C22G C49G G117C U130A | -6.43
86 | C12U U14G U32C G51A C56U G57U G127A | -5.28
87 | C13A G71A G120A A121U | -0.704
88 | C12U C97U | -0.793
89 | C12U C34A U132A | -1.35
90 | C12U G71C C82G | -1.53
91 | C12U G63A C124G G127U | 1.79
92 | C12G C70A C82U A105U U106A U109G | -4.43
93 | C12U G47A | -0.468
94 | C12U A46C G47U C86A A108G | -1.87
95 | C12U U133G | -0.256
96 | C12U U87C | 1.04

Row | Variant | polymerase ribozyme fitness (log ratio)
97 | C12U G113A U125A | -0.67
98 | C12U C22G G45A G71A C94U C99U | -4.76
99 | C12U C56A G69A | -2.89
100 | C12G G47C U96A C104A | -4.59
101 | C12G C13A A50C A119U G127A | -1.75
102 | C13A G63A | -2.44
103 | C12G G61A C62G U87A G113U U125G | -7.34
104 | C12G G45A U78C A84C U106G | -2.62
105 | C12U U21G C88U | -2.37
106 | C12U G36A A83C U106A U129C G135U | -1.4
107 | C13G A43G | -3.37
108 | C12G G35A A74U | -4.41
109 | C12U G23A U130C | -5.34
110 | C12U C94U | -0.204
111 | C12U C94A | -0.148
112 | C12U G45A U96C G110U G135A | -2.06
113 | C12G U87A | -0.0361
114 | C12G G17U G57C C62A C115G U129C U132C | -3.27
115 | C12U G120C | 2
116 | C12U G120A | 1.63
117 | C12U G48U | -0.505
118 | C12U G51A C101U | -2.14
119 | C12G G36C A43C G63C | -4.59
120 | C12U G47A U55A G61U C86U | -0.0107

Row | Variant | polymerase ribozyme fitness (log ratio)
121 | C13G A37C U112C | -0.647
122 | C12U C34A G71U U78G U125A | -3.95
123 | C12G A83G C88G U125G | -2.21
124 | C13A A46U | -3.23
125 | C12G C73A C88U G122A | -1.14
126 | C12U G42C C62A G120U U126C | -1.07
127 | C12G U112A U133G | 1.61
128 | C13A C94A C124A | 0.414
129 | C13A A29G U32A G39A G120A U126A U130G U134C | -2.77
130 | C12U C15G G63U G120U | -0.846
131 | C13G C56A | -1.9
132 | C12U A29G C73G U92C C94A | -5.22
133 | C12U G45A | -1.24
134 | C12U G45U | -0.901
135 | C13A C56U | -1.43
136 | C12U C49G | -0.764
137 | C13G C28G G42C | -6.24
138 | C12G G69U G93U C94G U96A C97U U109A | -5.02
139 | C12G U55A C70U G113C | -3.9
140 | C13A A27C C70U | -5.92
141 | C13A A46G U125G | -3.19
142 | C12U G63A U106G | -3.38
143 | C12U C56U G69U U112G A119U | -2.27
144 | C13A C40A C56U | -2.79

Row | Variant | polymerase ribozyme fitness (log ratio)
145 | C12U C49A A50C A95C | -1.09
146 | C13G A16C C85G A121C | -3.75
147 | C12U A91U G135U | -2.33
148 | C12G U14A U38G C76U C85G | -3.19
149 | C12G C56G C70G | -3.6
150 | C12U U38C G107A G117C C123A | -5.15
151 | C12U C80U | -0.606
152 | C13A A27C U129A | -5.35
153 | C12G C13A C72G C124U | -0.0514
154 | C13A C124U U132A | -1.61
155 | C12U C22U C28U C124A | -4.02
156 | C13A U38A C53U C89A | -4.39
157 | C12G C20U G36A G71A C80U C82A C88A G120U U126C | -5.21
158 | C13G A90U C124U U129C | -3.28
159 | C12U G44U G47C C89A A90C U116A U131G | -3.02
160 | C12G U14C U59G | -1.18
161 | C13A C20A | -3.84
162 | C12G C94U G110C G127C | -4.48
163 | C12G A46G G128C U131A | -2.32
164 | C12U C31G A37G G45U A50C G51U C102A G117U | -7.15
165 | C13A A16G G61A C79G G113C | -5.27
166 | C13G C40G C123G | -0.377
167 | C12G C20G C56U C79U C82U A91U G107C G117A | -3.77
